Laboratory results published in the Immune Epitope Database (IEDB).

Columns and labels:
HLA-A*24:02 = experiment: IEDB peptide-MHC binding, purified MHC/competitive/radioactivity; filed as Kd, often an IC50 or EC50 that approximates it; ≥ and ≤ were set here for values at or beyond the usual limits of such assays
HLA-A*23:01 = experiment: as above
HLA-A*69:01 = experiment: IEDB peptide-MHC binding, purified MHC/direct/fluorescence; filed as Kd, often an IC50 or EC50 that approximates it; ≥ and ≤ were set here for values at or beyond the usual limits of such assays
HLA-A*02:01 [1] = experiment: as above
HLA-B*08:01 = experiment: IEDB peptide-MHC binding, purified MHC/competitive/radioactivity; filed as Kd, often an IC50 or EC50 that approximates it; ≥ and ≤ were set here for values at or beyond the usual limits of such assays
HLA-A*30:01 = experiment: as above
HLA-A*02:01 [2] = experiment: IEDB peptide-MHC binding, purified MHC/competitive/fluorescence; ≥ and ≤ were set here for values at or beyond the usual limits of such assays
HLA-A*30:02 = experiment: IEDB peptide-MHC binding, purified MHC/competitive/radioactivity; filed as Kd, often an IC50 or EC50 that approximates it; ≥ and ≤ were set here for values at or beyond the usual limits of such assays
HLA-A*26:01 = experiment: as above
HLA-A*02:03 = experiment: as above
HLA-A*01:01 [3] = experiment: as above
HLA-A*11:01 = experiment: IEDB peptide-MHC binding, purified MHC/direct/fluorescence; filed as Kd, often an IC50 or EC50 that approximates it; ≥ and ≤ were set here for values at or beyond the usual limits of such assays; conditions: source organism: Influenza A virus (A/tiger/Thailand/CU-T4/04(H5N1))
HLA-A*03:01 = experiment: as above; conditions: source organism: Influenza A virus (A/tiger/Thailand/CU-T4/04(H5N1))
HLA-A*01:01 [4] = experiment: as above; conditions: source organism: Treponema pallidum
HLA-A*02:02 = experiment: IEDB peptide-MHC binding, purified MHC/competitive/radioactivity; filed as Kd, often an IC50 or EC50 that approximates it; ≥ and ≤ were set here for values at or beyond the usual limits of such assays
HLA-A*02:06 = experiment: as above
[5] = source organism: Dengue virus 1 Brazil/97-11/1997
[6] = source organism: Dengue virus 4 Philippines/H241/1956
[7] = source organism: Vibrio alginolyticus 12G01
[8] = source organism: Dengue virus 3 Martinique/1243/1999
[9] = source organism: Vaccinia virus WR
[10] = source organism: Brucella melitensis
[11] = source organism: Zaire ebolavirus
[12] = source organism: Escherichia coli
[13] = source organism: Human alphaherpesvirus 1 strain 17
[14] = source organism: Francisella tularensis subsp. tularensis FSC198
[15] = source organism: Dengue virus 2 Jamaica/1409/1983
[16] = source organism: Sudan ebolavirus
[17] = source organism: Treponema pallidum
[18] = source organism: Camelpox virus M-96
[19] = source organism: SARS coronavirus Tor2

## GWNDWQQVPF
HLA-A*24:02; [5]
  Kd: 1740 nM
HLA-A*23:01; [5]
  Kd: 1400 nM

## SYKVASAGI
HLA-A*24:02; [6]
  Kd: 105 nM

## VVRGIDGGV
HLA-A*69:01; [7]
  Kd: ≥ 20000 nM
HLA-A*02:01 [1]; [7]
  Kd: ≥ 20000 nM

## MRKTDWLPM
HLA-B*08:01; [8]
  Kd: 35 nM

## KTTFSLHYA
HLA-A*30:01; source organism: Dengue virus 1 Singapore/S275/1990
  Kd: 14.5 nM

## YSHGDIKAS
HLA-A*02:01 [2]; [9]
  IC50: ≥ 72000 nM

## ETDLNQWMV
HLA-A*69:01; [10]
  Kd: 0.8 nM
HLA-A*02:01 [1]; [10]
  Kd: 163 nM

## SALYSYASA
HLA-A*30:01; [9]
  Kd: 36.7 nM

## ALKRRLRTL
HLA-B*08:01; [6]
  Kd: 1.89 nM

## SGALWDVPSP
HLA-A*30:01; [6]
  Kd: 11000 nM

## RGDLPVWLSY
HLA-A*30:02; [5]
  Kd: 4100 nM

## SVKINFEFV
HLA-B*08:01; [9]
  Kd: 105 nM

## RARVSQGAG
HLA-A*30:01; [5]
  Kd: 194 nM

## HLKNSAENK
HLA-A*30:01; [9]
  Kd: 861 nM

## EWITDFVGKT
HLA-A*26:01; source organism: Dengue virus 3 Singapore/8120/1995
  Kd: ≥ 28200 nM

## LLMLCLHHA
HLA-A*02:01 [2]; [11]
  IC50: 404 nM

## WTMKIGIGIL
HLA-B*08:01; [5]
  Kd: 342 nM

## SSAMVQVHS
HLA-A*02:01 [2]; [11]
  IC50: ≥ 595000 nM

## NPGARNARL
HLA-B*08:01; [9]
  Kd: 6.19 nM

## ETLLLLGLM
HLA-A*26:01; [8]
  Kd: 133 nM

## VWEVEDYGF
HLA-A*23:01; [8]
  Kd: 296 nM

## MLKRVRNRV
HLA-B*08:01; [8]
  Kd: 18.5 nM
HLA-A*02:03; [8]
  Kd: 14.5 nM

## GLLASAPGI
HLA-A*69:01; [12]
  Kd: 974 nM
HLA-A*02:01 [1]; [12]
  Kd: 6.3 nM

## LLPPELSET
HLA-A*02:01 [2]; [13]
  IC50: 4890 nM

## SILEYAKSI
HLA-A*69:01; [14]
  Kd: 107 nM
HLA-A*02:01 [1]; [14]
  Kd: 102 nM

## VDRKGKVVGL
HLA-B*08:01; [15]
  Kd: 6320 nM

## WMDLLRALI
HLA-A*01:01 [3]; [6]
  Kd: 9950 nM

## RYLRDQQLL
HLA-A*24:02; source organism: HIV-1 M:B_ARV2/SF2
  Kd: 30 nM

## EKVDAIDGEY
HLA-A*30:02; [15]
  Kd: 25.9 nM
HLA-A*26:01; [15]
  Kd: 9410 nM

## GVSTDIPSA
HLA-A*02:01 [2]; [16]
  IC50: 2080 nM

## CIKSHSVSL
HLA-B*08:01; [9]
  Kd: 2.3 nM

## VTEKDSPVNI
HLA-A*01:01 [3]; [15]
  Kd: ≥ 40900 nM

## NSPVFNYNK
HLA-A*11:01
  Kd: 116 nM
HLA-A*03:01
  Kd: ≥ 20000 nM

## SISIKLTDS
HLA-A*02:01 [2]; source organism: Vaccinia virus Copenhagen
  IC50: ≥ 107000 nM

## LARTAKVKN
HLA-A*02:01 [2]; [11]
  IC50: ≥ 213000 nM

## IIGTNGNHM
HLA-A*02:01 [2]; [16]
  IC50: ≥ 144000 nM

## LTEIASLPT
HLA-A*01:01 [3]; [6]
  Kd: 1470 nM

## RARFIGGYI
HLA-A*30:01; [9]
  Kd: 0.263 nM

## DLVLFDLDE
HLA-A*02:01 [2]; [11]
  IC50: ≥ 425000 nM

## LAIPPTAGIL
HLA-B*08:01; [5]
  Kd: 4250 nM

## SMFMSLLPA
HLA-B*08:01; [9]
  Kd: 55.5 nM

## MDLEKRHVL
HLA-B*08:01; [15]
  Kd: 68 nM

## SITEAELTGY
HLA-A*01:01 [3]; [15]
  Kd: 391 nM

## TWKLARASF
HLA-A*24:02; [5]
  Kd: 224 nM
HLA-A*23:01; [5]
  Kd: 218 nM

## FGTNETEYL
HLA-A*02:01 [2]; [11]
  IC50: 27400 nM

## EVDSFSLGI
HLA-A*01:01 [3]; [5]
  Kd: 7390 nM

## RFANALLAL
HLA-A*24:02; [8]
  Kd: 689 nM
HLA-A*23:01; [8]
  Kd: 142 nM

## KVRSNAALG
HLA-A*30:01; [15]
  Kd: 2.44 nM

## KALSKLISK
HLA-A*30:01; [9]
  Kd: 70 nM

## MWKQITNEL
HLA-A*23:01; [6]
  Kd: 144 nM

## IVDYVTAYG
HLA-A*69:01; [17]
  Kd: 1630 nM
HLA-A*01:01 [4]
  Kd: 2520 nM
HLA-A*02:01 [1]; [17]
  Kd: 17300 nM

## AYQHALNEL
HLA-A*24:02; [6]
  Kd: 199 nM
HLA-A*23:01; [6]
  Kd: 2340 nM

## QVSDVDKLV
HLA-A*02:01 [2]; [11]
  IC50: ≥ 70700 nM

## VMKRYSAPFE
HLA-A*30:01; [6]
  Kd: 5920 nM

## KLRPRWLDA
HLA-A*30:01; [5]
  Kd: 22.5 nM

## TFKMRPMFA
HLA-A*30:01; [5]
  Kd: 23.1 nM

## NLTSTWVTY
HLA-A*01:01 [3]; [8]
  Kd: 1710 nM

## SVYIRPTSL
HLA-B*08:01; [9]
  Kd: 10.7 nM

## VLLNAPSEA
HLA-A*02:01 [2]; [13]
  IC50: 19 nM

## SLLRNDVPM
HLA-B*08:01; [8]
  Kd: 47.5 nM

## SLNTKFKTL
HLA-B*08:01; [9]
  Kd: 8.68 nM

## IKRKLRTLIL
HLA-B*08:01; [5]
  Kd: 5800 nM

## SPKRLATAI
HLA-B*08:01; [8]
  Kd: 14.1 nM

## KTSSGRMPV
HLA-A*30:01; [9]
  Kd: 1.96 nM

## EIRGVLPEET
HLA-A*02:02; [9]
  Kd: 9600 nM
HLA-A*02:06; [9]
  Kd: ≥ 20100 nM
HLA-A*02:03; [9]
  Kd: 4870 nM

## AVIPFDDIV
HLA-A*02:02; [9]
  Kd: 313 nM
HLA-A*02:06; [9]
  Kd: 42.4 nM
HLA-A*02:03; [9]
  Kd: 241 nM

## IASAPQQLCT
HLA-A*02:02; [9]
  Kd: ≥ 53200 nM
HLA-A*02:06; [9]
  Kd: 8320 nM
HLA-A*02:03; [9]
  Kd: ≥ 70400 nM

## VYPMSIPATL
HLA-A*24:02; [5]
  Kd: 78.1 nM
HLA-A*23:01; [5]
  Kd: 6.39 nM

## ILSEKRKDTI
HLA-A*02:02; [9]
  Kd: ≥ 44000 nM
HLA-A*02:06; [9]
  Kd: ≥ 69800 nM
HLA-A*02:03; [9]
  Kd: 541 nM

## GKLGLITNT
HLA-A*02:01 [2]; [11]
  IC50: ≥ 231000 nM

## NYKERMVTF
HLA-A*24:02; [6]
  Kd: 19.4 nM
HLA-A*23:01; [6]
  Kd: 101 nM

## LLSKNTFYL
HLA-A*69:01; [18]
  Kd: 536 nM
HLA-A*02:01 [1]; [18]
  Kd: 15.5 nM

## ALLADKFPV
HLA-A*02:02; [19]
  Kd: 29.1 nM
HLA-A*02:06; [19]
  Kd: 22.8 nM
HLA-A*02:03; [19]
  Kd: 604 nM

## DVKKDLISY
HLA-A*26:01; [15]
  Kd: 369 nM

## KRTSFFLWV
HLA-A*02:01 [2]; [11]
  IC50: ≥ 79600 nM

## TMGVLCLAIL
HLA-B*08:01; [8]
  Kd: 6430 nM

## WFVERNMVI
HLA-A*23:01; [8]
  Kd: 340 nM

## YLYNKYSFKL
HLA-A*02:02; [9]
  Kd: 0.109 nM
HLA-A*02:06; [9]
  Kd: 0.14 nM
HLA-A*02:03; [9]
  Kd: 0.0349 nM
